Measured values taken from the supplement of paper PMC7877785.
± gives the uncertainty stated by the source.

Assay: self-splicing fitness, log relative to wild type (ln ratio); higher = more splicing; Tetrahymena group I intron in knt gene, E. coli kanamycin selection, DiMSum; sequences stand for … in CUCUCU…GGAGGGAAAAGUUAUCAGGCAUGCACCUGGUAGCUAGUCUUUAAACCAAUAGAUUGCAUCGGUUUAAAAGGCAAGACCGUCAAAUUGCGGGAAAGGGGUCAACAGCCGUUCAGUACCAAGUCUCAGGGGAAACUUUGAGAUGGCCUUGCAAAGGGUAUGGUAAUAAGCUGACGGACAUGGUCCUAACCACGCAGCCAAGUCCUAAGUCAACAGAUCUUCUGUUGAUAUGGAUGCAGUUCACAGACUAAAUGUCGGUCGGGGAAGAUGUAUUCUUCUCAUAAGAUAUAGUCGGACCUCUCCUUAAUGGGAGCUAGCGGAUGAAGUGAUGCAACACUGGAGCCGCUGGGAACUAAUUUGUAUGCGAAAGUAUAUUGAUUAGUUUUGGAGUACUCGUGGUCG
Summary of the method: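 Colonies from six replicate transformations of E. coli BL21(DE3) were pooled and amplicon-sequenced on an Illumina HiSeq 2500. The library placed an intron with all eight P1ex-region nucleotides randomised inside the knt kanamycin-resistance gene on pET-22b(+), and cells grew overnight at 37°C or 30°C on LB agar with or without 25 μg/mL kanamycin (plus 100 μg/mL carbenicillin, 50 μM IPTG, 0.2% rhamnose). Fitness is the DiMSum error-weighted combination of wild-type-normalised replicate fold changes, kanamycin versus none.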

Row | Sequence | self-splicing fitness (ln) (30 °C) | self-splicing fitness (ln) (37 °C)
1 | AAAAAGCAAUAUUACGAACA | -0.675 ± 0.092 | -0.407 ± 0.11
2 | AAAAAGCAAUAUUACGACCU | 0.273 ± 0.072 | 0.617 ± 0.089
3 | AAAAAGCAAUAUUACGACGU | 0.102 ± 0.054 | 0.768 ± 0.067
4 | AAAAAGCAAUAUUACGAGUG | -1.35 ± 0.088 | -1.18 ± 0.09
5 | AAAAAGCAAUAUUACGAUAU | -0.534 ± 0.061 | -0.545 ± 0.079
6 | AAAAAGCAAUAUUACGCAUU | -2.5 ± 0.1 | -1.8 ± 0.11
7 | AAAAAGCAAUAUUACGCCAA | -2.26 ± 0.17 | -1.33 ± 0.12
8 | AAAAAGCAAUAUUACGCCGU | -0.957 ± 0.064 | -0.392 ± 0.072
9 | AAAAAGCAAUAUUACGCGGC | -3.53 ± 0.26 | -2.15 ± 0.27
10 | AAAAAGCAAUAUUACGCUAG | -1.41 ± 0.086 | -0.619 ± 0.085
11 | AAAAAGCAAUAUUACGGAGU | -2.15 ± 0.13 | -1.63 ± 0.13
12 | AAAAAGCAAUAUUACGGCCA | -0.43 ± 0.11 | -0.0922 ± 0.15
13 | AAAAAGCAAUAUUACGGUAC | -3.24 ± 0.11 | -1.76 ± 0.094
14 | AAAAAGCAAUAUUACGGUUG | -2.28 ± 0.1 | -1.58 ± 0.13
15 | AAAAAGCAAUAUUACGUAAG | -1.08 ± 0.061 | -0.0629 ± 0.081
16 | AAAAAGCAAUAUUACGUCCC | -0.842 ± 0.15 | 0.362 ± 0.23
17 | AAAAAGCAAUAUUACGUCGC | -2.7 ± 0.26 | -1.34 ± 0.17
18 | AAAAAGCAAUAUUACGUGCA | -0.742 ± 0.056 | -0.201 ± 0.072
19 | AAAAAGCAAUAUUACGUUAU | -2.13 ± 0.071 | -1.55 ± 0.1
20 | AAAAAGCAAUAUUACGUUCU | -0.294 ± 0.066 | -0.0468 ± 0.083
21 | AAAAAGCAAUAUUACGUUUG | -2.65 ± 0.097 | -2.01 ± 0.12
22 | AAACAGCAAUAUUACGACCA | -0.58 ± 0.061 | -0.0342 ± 0.082
23 | AAACAGCAAUAUUACGACUG | -1.64 ± 0.064 | -0.795 ± 0.071
24 | AAACAGCAAUAUUACGAUGG | -3.16 ± 0.15 | -1.27 ± 0.16

Row | Sequence | self-splicing fitness (ln) (30 °C) | self-splicing fitness (ln) (37 °C)
25 | AAACAGCAAUAUUACGCAUU | -2.68 ± 0.094 | -1.08 ± 0.094
26 | AAACAGCAAUAUUACGCCUA | -1.13 ± 0.086 | -0.0496 ± 0.075
27 | AAACAGCAAUAUUACGCCUC | -2.55 ± 0.15 | -1.49 ± 0.15
28 | AAACAGCAAUAUUACGCCUG | -1.99 ± 0.096 | -0.538 ± 0.1
29 | AAACAGCAAUAUUACGCGGG | -2.69 ± 0.097 | -0.988 ± 0.073
30 | AAACAGCAAUAUUACGCUAA | -1.6 ± 0.084 | -1.58 ± 0.1
31 | AAACAGCAAUAUUACGGACC | -1.94 ± 0.078 | -1.08 ± 0.095
32 | AAACAGCAAUAUUACGGCAA | -0.944 ± 0.096 | -0.612 ± 0.11
33 | AAACAGCAAUAUUACGGCUC | -0.311 ± 0.068 | 0.201 ± 0.095
34 | AAACAGCAAUAUUACGGGAU | -2.65 ± 0.1 | -1.69 ± 0.087
35 | AAACAGCAAUAUUACGGGGA | -2.79 ± 0.1 | -1.63 ± 0.081
36 | AAACAGCAAUAUUACGUAGC | -4.24 ± 0.16 | -2.98 ± 0.18
37 | AAACAGCAAUAUUACGUAGG | -1.85 ± 0.057 | -1.34 ± 0.08
38 | AAACAGCAAUAUUACGUCCC | -1.44 ± 0.17 | 0.29 ± 0.17
39 | AAACAGCAAUAUUACGUCGC | -3.37 ± 0.21 | -2.92 ± 0.23
40 | AAACAGCAAUAUUACGUCUU | -0.362 ± 0.054 | 0.322 ± 0.071
41 | AAACAGCAAUAUUACGUGCU | -3.52 ± 0.2 | -1.91 ± 0.14
42 | AAACAGCAAUAUUACGUGGU | -4.06 ± 0.14 | -2.31 ± 0.15
43 | AAAGAGCAAUAUUACGAAAG | -3.63 ± 0.24 | -3.18 ± 0.24
44 | AAAGAGCAAUAUUACGAACG | -3.87 ± 0.21 | -1.74 ± 0.13
45 | AAAGAGCAAUAUUACGAAGU | -3.28 ± 0.38 | -2.05 ± 0.32
46 | AAAGAGCAAUAUUACGAGAC | -3.51 ± 0.35 | -2.11 ± 0.27
47 | AAAGAGCAAUAUUACGCACA | – | -0.789 ± 0.28
48 | AAAGAGCAAUAUUACGCAGG | -3.47 ± 0.24 | -3.45 ± 0.35

Row | Sequence | self-splicing fitness (ln) (30 °C) | self-splicing fitness (ln) (37 °C)
49 | AAAGAGCAAUAUUACGCAUG | -2.55 ± 0.18 | -1.7 ± 0.098
50 | AAAGAGCAAUAUUACGCCGA | -1.81 ± 0.29 | -2.33 ± 0.34
51 | AAAGAGCAAUAUUACGCGAG | -1.87 ± 0.12 | -1.58 ± 0.13
52 | AAAGAGCAAUAUUACGCGCG | -2.69 ± 0.17 | -1.65 ± 0.17
53 | AAAGAGCAAUAUUACGCUGG | -4.07 ± 0.32 | -1.89 ± 0.31
54 | AAAGAGCAAUAUUACGGAAG | -3.76 ± 0.21 | -2.62 ± 0.33
55 | AAAGAGCAAUAUUACGGAGA | -2.99 ± 0.22 | -1.98 ± 0.21
56 | AAAGAGCAAUAUUACGGCCG | -1.78 ± 0.18 | -0.0792 ± 0.23
57 | AAAGAGCAAUAUUACGGGAC | -3.56 ± 0.38 | -1.96 ± 0.22
58 | AAAGAGCAAUAUUACGGGAU | -4.18 ± 0.23 | -2.09 ± 0.17
59 | AAAGAGCAAUAUUACGGUCG | -2.47 ± 0.16 | -1.58 ± 0.15
60 | AAAGAGCAAUAUUACGGUGA | -3.87 ± 0.22 | -1.93 ± 0.14
61 | AAAGAGCAAUAUUACGUACG | -3.6 ± 0.44 | -1.9 ± 0.41
62 | AAAGAGCAAUAUUACGUAGC | -4.35 ± 0.27 | -2.45 ± 0.24
63 | AAAGAGCAAUAUUACGUUUC | -3.41 ± 0.18 | -2.55 ± 0.24
64 | AAAUAGCAAUAUUACGAGCA | -1.4 ± 0.11 | -0.127 ± 0.11
65 | AAAUAGCAAUAUUACGAGCG | -1.75 ± 0.17 | -0.208 ± 0.15
66 | AAAUAGCAAUAUUACGAGUU | -1.22 ± 0.11 | -0.896 ± 0.11
67 | AAAUAGCAAUAUUACGCACA | -0.634 ± 0.097 | -0.2 ± 0.14
68 | AAAUAGCAAUAUUACGCCAU | -3.75 ± 0.25 | -2.36 ± 0.24
69 | AAAUAGCAAUAUUACGCCUC | -1.6 ± 0.14 | -0.0982 ± 0.17
70 | AAAUAGCAAUAUUACGCGAG | -1.93 ± 0.17 | -0.639 ± 0.14
71 | AAAUAGCAAUAUUACGCUUG | -1.77 ± 0.087 | -0.8 ± 0.12
72 | AAAUAGCAAUAUUACGGCAC | -0.691 ± 0.1 | 0.0337 ± 0.12

Row | Sequence | self-splicing fitness (ln) (30 °C) | self-splicing fitness (ln) (37 °C)
73 | AAAUAGCAAUAUUACGGCAG | -1.67 ± 0.15 | -0.465 ± 0.16
74 | AAAUAGCAAUAUUACGGCGA | -0.48 ± 0.11 | -0.0146 ± 0.12
75 | AAAUAGCAAUAUUACGGCGU | -0.263 ± 0.071 | -0.0261 ± 0.095
76 | AAAUAGCAAUAUUACGGCUU | 0.203 ± 0.1 | 0.139 ± 0.13
77 | AAAUAGCAAUAUUACGGUAG | -3.63 ± 0.22 | -2.62 ± 0.23
78 | AAAUAGCAAUAUUACGGUUA | -0.483 ± 0.077 | -0.546 ± 0.08
79 | AAAUAGCAAUAUUACGUAGA | -3.32 ± 0.17 | -0.484 ± 0.1
80 | AAAUAGCAAUAUUACGUCUG | -1.3 ± 0.068 | -0.843 ± 0.088
81 | AAAUAGCAAUAUUACGUGAG | -1.19 ± 0.078 | -0.609 ± 0.11
82 | AACAAGCAAUAUUACGACUG | -0.961 ± 0.099 | -0.786 ± 0.11
83 | AACAAGCAAUAUUACGACUU | -0.0432 ± 0.046 | 0.207 ± 0.064
84 | AACAAGCAAUAUUACGAGCA | -1.22 ± 0.099 | -0.153 ± 0.11
85 | AACAAGCAAUAUUACGAGGU | -4.04 ± 0.21 | -3.54 ± 0.17
86 | AACAAGCAAUAUUACGAGUA | -1.5 ± 0.078 | -0.465 ± 0.08
87 | AACAAGCAAUAUUACGCAAA | -2.08 ± 0.17 | 0.267 ± 0.13
88 | AACAAGCAAUAUUACGCAGA | -2.2 ± 0.11 | -0.924 ± 0.095
89 | AACAAGCAAUAUUACGCAUA | -1.8 ± 0.12 | -1.04 ± 0.13
90 | AACAAGCAAUAUUACGCCGC | -3.05 ± 0.31 | -1.94 ± 0.36
91 | AACAAGCAAUAUUACGCCUC | -1.75 ± 0.14 | -0.437 ± 0.15
92 | AACAAGCAAUAUUACGCGCG | -0.623 ± 0.093 | 0.651 ± 0.11
93 | AACAAGCAAUAUUACGCUAA | -2.12 ± 0.11 | -0.523 ± 0.091
94 | AACAAGCAAUAUUACGGCAG | -1.53 ± 0.11 | -1.4 ± 0.13
95 | AACAAGCAAUAUUACGGCAU | -0.11 ± 0.057 | -0.0731 ± 0.073
